pKi: −log10 of the molar value.
Target: trypsin from bovine pancreas (Sigma, St. Louis) (bovine) (UniProt P00760)
Assay: inhibition kinetics of trypsin (0.005 µM) digesting EGFP-T/C1 at 0-100 nM leupeptin, absorbance at 490 nm, fitted with Enzfitter

trypsin from bovine pancreas (Sigma, St. Louis) (bovine), sequence (P00760 24-246): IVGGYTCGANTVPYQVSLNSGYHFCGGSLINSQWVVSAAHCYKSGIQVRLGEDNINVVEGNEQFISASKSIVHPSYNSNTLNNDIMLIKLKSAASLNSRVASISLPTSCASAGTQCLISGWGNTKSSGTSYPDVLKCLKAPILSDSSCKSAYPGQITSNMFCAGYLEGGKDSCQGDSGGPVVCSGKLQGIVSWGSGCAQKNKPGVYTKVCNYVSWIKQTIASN

pKi: 7.51
Substance: leupeptin (Sigma, St. Louis) (peptide)
